The target of assay [1] is T1, SEZ6 N3 (aa 170-335) on yeast (human, UniProt Q53EL9 189-354).
T1 construct: yeast display
T1 sequence: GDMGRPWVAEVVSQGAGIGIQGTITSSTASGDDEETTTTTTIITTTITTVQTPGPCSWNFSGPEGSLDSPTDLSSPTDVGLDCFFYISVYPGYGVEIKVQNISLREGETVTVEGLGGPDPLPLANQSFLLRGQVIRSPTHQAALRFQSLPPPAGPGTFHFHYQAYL
The experiment in a line: yeast display, flow cytometry.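 Further: antibody binding to individual SEZ6 domains displayed on yeast, measured by flow cytometry, antibody at 50 nM purified or hybridoma supernatant diluted 1:2, 90 min on ice.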 On the technique in general: Flow cytometry measures light scatter and fluorescence of single cells or particles in a stream.

Assay [2] addresses T2, rat SEZ6 on RIN-m5F cells (rat, UniProt Q7TSK2 20-991 (mouse entry)).
T2 construct: endogenous on RIN-m5F cells; also called rSEZ6
T2 chain: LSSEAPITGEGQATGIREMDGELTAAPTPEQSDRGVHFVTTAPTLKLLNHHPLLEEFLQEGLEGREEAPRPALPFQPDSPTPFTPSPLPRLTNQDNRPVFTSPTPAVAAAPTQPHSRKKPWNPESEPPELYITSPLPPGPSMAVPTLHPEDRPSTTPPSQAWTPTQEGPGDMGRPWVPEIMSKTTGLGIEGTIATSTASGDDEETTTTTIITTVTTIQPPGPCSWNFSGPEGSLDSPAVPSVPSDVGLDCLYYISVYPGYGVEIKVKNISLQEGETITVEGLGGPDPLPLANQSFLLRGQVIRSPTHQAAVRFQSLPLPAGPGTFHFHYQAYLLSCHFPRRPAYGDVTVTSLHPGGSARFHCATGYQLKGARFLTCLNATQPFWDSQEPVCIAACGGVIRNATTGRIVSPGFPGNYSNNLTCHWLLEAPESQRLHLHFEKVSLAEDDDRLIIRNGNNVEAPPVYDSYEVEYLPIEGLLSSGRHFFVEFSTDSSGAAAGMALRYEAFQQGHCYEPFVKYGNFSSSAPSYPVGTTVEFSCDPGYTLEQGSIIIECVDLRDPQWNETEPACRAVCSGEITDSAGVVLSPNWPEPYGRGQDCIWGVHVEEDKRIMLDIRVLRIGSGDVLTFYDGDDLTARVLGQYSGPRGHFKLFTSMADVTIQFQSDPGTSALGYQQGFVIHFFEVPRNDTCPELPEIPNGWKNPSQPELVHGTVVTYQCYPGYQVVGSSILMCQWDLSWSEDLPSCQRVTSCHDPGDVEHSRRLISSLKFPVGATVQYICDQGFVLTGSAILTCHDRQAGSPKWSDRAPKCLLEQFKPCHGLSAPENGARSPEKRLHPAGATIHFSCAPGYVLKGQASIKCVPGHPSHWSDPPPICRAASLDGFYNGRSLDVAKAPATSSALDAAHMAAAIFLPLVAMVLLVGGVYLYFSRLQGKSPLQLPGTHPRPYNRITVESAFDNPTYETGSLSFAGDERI
The experiment in a line: flow cytometry, RIN-m5F cells, 5 ug/mL antibody.
Procedure: (§1) Briefly 1×10⁵ cells per well of Neuro2a, RIN-5mF, or yeast displaying cynomolgus SEZ6 cells were incubated for 30 minutes with 50 μL PBS (2% FCS) buffer with 5 μg/mL antibody. […] After incubating for 15 minutes cells were washed twice with the PBS buffer and re-suspended in the same with DAPI for flow cytometry analysis of Neuro2a and Rin-m5F or buffer without DAPI for flow cytometric analysis of yeast cells with cSEZ6.

Another assay addresses T3, human SEZ6L ECD-His (human, UniProt Q9BYH1 29-955).
T3 construct: whole entry named
T3 sequence: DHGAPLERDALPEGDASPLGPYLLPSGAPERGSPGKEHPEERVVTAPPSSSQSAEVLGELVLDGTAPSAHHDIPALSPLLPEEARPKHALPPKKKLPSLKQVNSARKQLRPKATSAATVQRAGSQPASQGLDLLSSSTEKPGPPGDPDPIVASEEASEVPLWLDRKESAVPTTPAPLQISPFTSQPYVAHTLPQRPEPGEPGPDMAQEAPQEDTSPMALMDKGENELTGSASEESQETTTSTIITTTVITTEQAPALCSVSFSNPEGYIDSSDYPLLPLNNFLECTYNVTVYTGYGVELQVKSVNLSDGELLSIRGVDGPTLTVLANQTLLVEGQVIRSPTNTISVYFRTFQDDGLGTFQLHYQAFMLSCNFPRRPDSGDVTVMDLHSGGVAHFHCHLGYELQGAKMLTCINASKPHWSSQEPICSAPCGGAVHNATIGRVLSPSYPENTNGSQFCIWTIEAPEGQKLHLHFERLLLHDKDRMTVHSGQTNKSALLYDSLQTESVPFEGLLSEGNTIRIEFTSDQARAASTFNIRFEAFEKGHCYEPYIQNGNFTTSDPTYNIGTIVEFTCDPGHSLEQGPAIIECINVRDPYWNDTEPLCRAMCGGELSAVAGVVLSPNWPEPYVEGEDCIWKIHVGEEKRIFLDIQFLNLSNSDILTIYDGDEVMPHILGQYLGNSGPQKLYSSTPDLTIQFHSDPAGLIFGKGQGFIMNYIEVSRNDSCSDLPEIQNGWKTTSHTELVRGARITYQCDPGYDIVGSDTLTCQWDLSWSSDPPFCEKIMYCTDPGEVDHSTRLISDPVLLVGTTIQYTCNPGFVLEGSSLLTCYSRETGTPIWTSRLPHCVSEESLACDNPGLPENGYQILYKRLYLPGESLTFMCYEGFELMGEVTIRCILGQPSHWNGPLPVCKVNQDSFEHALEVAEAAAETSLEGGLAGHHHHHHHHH
Kind of assay: ELISA on plates coated with SEZ6L protein.

The target in the next assay is T4, human SEZ6L2 ECD-His (human, UniProt Q6UXD5 28-843).
T4 construct: whole entry named
The experiment in a line: mark of Table 5 for antibodies that bind SEZ6L2.

The target of another assay is T5, hSEZ6-ECD-His (human, UniProt Q53EL9 20-925).
T5 construct: the whole entry is named; also called recombinant SEZ6-His; human recombinant SEZ6-His
The experiment in a line: bio-layer interferometry (ForteBio RED) or surface plasmon resonance (Biacore 2000) on human SEZ6-His; the table does not say which; column Hu Affinity (Kd, nM). Background: BLI is a label-free optical method that tracks binding on a fibre tip over time.

The target of assay [3] is T6, mouse SEZ6 on Neuro2a cells (mouse, UniProt Q7TSK2 20-991).
T6 construct: endogenous on Neuro2a cells; also called murine SEZ6; mSEZ6
Kind of assay: flow cytometry, Neuro2a cells, 5 ug/mL antibody.
Procedure: as §1

The target of a further assay is T7, rSEZ6-ECD-His (rat, UniProt Q7TSK2 20-922 (mouse entry)).
T7 construct: the whole entry is named; also called rat recombinant SEZ6-His; rat SEZ6 ECD
T7 chain: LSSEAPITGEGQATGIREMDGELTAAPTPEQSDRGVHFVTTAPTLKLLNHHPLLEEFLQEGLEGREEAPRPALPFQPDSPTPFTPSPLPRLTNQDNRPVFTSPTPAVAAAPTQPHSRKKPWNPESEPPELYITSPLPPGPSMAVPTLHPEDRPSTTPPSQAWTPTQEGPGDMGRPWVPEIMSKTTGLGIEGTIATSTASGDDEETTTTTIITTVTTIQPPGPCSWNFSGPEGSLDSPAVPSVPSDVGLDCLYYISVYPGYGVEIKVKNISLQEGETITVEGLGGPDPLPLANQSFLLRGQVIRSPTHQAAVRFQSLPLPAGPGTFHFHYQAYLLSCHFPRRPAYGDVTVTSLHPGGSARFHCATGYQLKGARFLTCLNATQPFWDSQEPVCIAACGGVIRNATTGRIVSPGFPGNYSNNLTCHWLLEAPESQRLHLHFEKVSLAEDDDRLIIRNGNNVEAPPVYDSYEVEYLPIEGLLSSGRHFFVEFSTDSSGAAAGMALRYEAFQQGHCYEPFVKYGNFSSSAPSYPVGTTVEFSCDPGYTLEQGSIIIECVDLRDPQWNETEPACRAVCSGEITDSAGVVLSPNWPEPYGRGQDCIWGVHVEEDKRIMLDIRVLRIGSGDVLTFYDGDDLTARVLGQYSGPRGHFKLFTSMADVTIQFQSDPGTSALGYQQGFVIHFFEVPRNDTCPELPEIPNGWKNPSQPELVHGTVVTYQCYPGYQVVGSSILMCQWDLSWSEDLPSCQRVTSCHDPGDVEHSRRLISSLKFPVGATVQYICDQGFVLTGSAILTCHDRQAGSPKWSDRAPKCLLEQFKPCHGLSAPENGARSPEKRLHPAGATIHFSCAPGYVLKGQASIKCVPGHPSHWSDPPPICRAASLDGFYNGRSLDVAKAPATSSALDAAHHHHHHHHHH
The experiment in a line: bio-layer interferometry (ForteBio RED) or surface plasmon resonance (Biacore 2000) on rat SEZ6-His; the table does not say which; column Rat XR (Kd, nM).

We go through 5 molecules from US20190022241A1 (AbbVie / Abbott, published 2019).

The term Kd denotes the equilibrium constant for the complex coming apart. Read a high Kd as lower affinity.

T4 sequence (Q6UXD5 other isoform, or with tags, fused parts or gaps): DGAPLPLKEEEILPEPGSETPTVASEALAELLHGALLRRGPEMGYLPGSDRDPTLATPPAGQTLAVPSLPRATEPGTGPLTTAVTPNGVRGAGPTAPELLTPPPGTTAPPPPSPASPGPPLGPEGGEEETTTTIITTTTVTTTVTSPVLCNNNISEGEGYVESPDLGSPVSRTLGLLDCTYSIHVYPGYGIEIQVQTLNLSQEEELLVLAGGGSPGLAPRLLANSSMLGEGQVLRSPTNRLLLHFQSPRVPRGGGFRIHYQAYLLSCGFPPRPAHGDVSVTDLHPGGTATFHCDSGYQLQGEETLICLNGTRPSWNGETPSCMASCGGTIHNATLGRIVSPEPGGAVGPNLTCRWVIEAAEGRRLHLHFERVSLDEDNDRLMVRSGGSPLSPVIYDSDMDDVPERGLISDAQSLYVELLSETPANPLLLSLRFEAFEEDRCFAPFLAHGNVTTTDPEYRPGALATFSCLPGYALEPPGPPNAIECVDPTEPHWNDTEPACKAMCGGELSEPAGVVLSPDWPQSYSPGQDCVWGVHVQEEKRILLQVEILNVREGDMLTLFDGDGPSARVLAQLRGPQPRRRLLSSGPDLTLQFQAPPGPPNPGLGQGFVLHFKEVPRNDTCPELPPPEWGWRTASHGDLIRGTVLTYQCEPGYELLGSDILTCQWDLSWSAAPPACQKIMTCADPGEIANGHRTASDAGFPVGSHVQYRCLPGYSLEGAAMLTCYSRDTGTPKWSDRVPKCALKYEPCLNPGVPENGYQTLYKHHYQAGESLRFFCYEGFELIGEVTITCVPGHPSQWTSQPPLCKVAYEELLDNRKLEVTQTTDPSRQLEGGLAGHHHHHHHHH
Source text for hSEZ6-ECD-His: (§2) Various methods were used to analyze the binding and immunochemical characteristics of selected SEZ6 modulators generated as set forth above.
Procedure for human SEZ6L ECD-His: To determine cross reactivity to family member proteins, SEZ6L and SEZ6L2, an ELISA-based assay was used. Plates were coated with SEZ6, SEZ6L, or SEZ6L2 proteins at 0.2 μg/mL in PBS overnight. After washing with PBS containing 0.05% (v/v) Tween 20 (PB ST), the wells were blocked with 2% (w/v) BSA in PBS (PB SA), 100 μL/well for 1 hour at room temperature. Antibody was then added at 1 μg/mL in 100 μL PBSA for 1 hour at room temperature. After washing with PBST, 100 μL/well HRP-labeled goat anti-mouse IgG diluted 1:2,000 in PBSA for 1 hour at room temperature. […] After developing, an equal volume of 2M H₂SO₄ was added to stop substrate development and analyzed by spectrophotometer at OD 450.
Source text for rSEZ6-ECD-His: as §2

B1: SC17.91 (antibody, V domains shown)
VH: EVQLVESGGGLVKPGGSRKLSCAASGFTFSDYGMHWVRQAPEKGLEWVAYISRGSSTIHYADTVKGRFTISRDNAKNTLFLQMTSLRSEDTAMYYCARPFNWYFDVWGAGTTVTVSS
VL: DVVMTQTPLSLPVSLGDQASISCRSSQSLVHSNGNTYLLWYLQKPGQSPKLLIYKVSNRFSGVPDRFSGSGSGTDFALKISRVEAEDLGVYFCSQSTHVPWTFGGGTKLEIK
notes: murine mAb
With B1, the binding result in assay [1] is given as “binds”.

B2: SC17.19 (antibody, V domains shown)
VH: DVQLQESGPGLVKPSQSLSVTCTVTGYSITSSYTWNWIRQFPGNKLEWMGYIHYSGSTNYNPSLRSRISITRDTSKNQFFLQLNSVTTEDTATYYCARSRYYYDAYGFAYWGQGTLVTVSA
VL: DIVLTQSPASLAVSLGQRAAISCKPSQSVDYDGDSYMNWYQQKPGQPPKLLIYAASNLESGIPARFSGSGSGTDFTLNIHPVEEEDAATYYCHQINDDPWTFGGGTKLK
notes: murine mAb
On to B2, for which the binding result is on record as “binds” in assay [2], “no binding (tested: 1 µg/mL)” with human SEZ6L ECD-His, “binds” with human SEZ6L2 ECD-His and “binds” in assay [3]. This molecule registered a Kd with hSEZ6-ECD-His of 5.3 nM.

B3: SC17.6 (antibody, V domains shown)
VH: EVQLQQSGPELMKPGASVKMSCKASGYTFTDYNMYWVKQNQGKSLEWIGEINPNNGGTAYNQKFRGKATLTVDKSSSTAYMELRSLTSEDSAVYYCARYDKGFDYWGQGTTLTVSS
VL: DIQMTQSPASLSVSVGETVTITCRASANINSNLVWYQQKQGKSPQLLVYAATNLADGVPSRFSGSGSGTQYSLKINSLQSEDFGNYYCQHFWGTPRTFGGGTKLEIK
notes: murine mAb; also called SC17.16 (duplicate)
Take B3: the binding result in assay [2] was “binds”; in the assay with human SEZ6L ECD-His, “no binding (tested: 1 µg/mL)”; in the assay with human SEZ6L2 ECD-His, “binds”; in assay [3] it was “binds”. For the same molecule, the Kd in the assay with rSEZ6-ECD-His and with hSEZ6-ECD-His was below 1 nM in each case.

B4: SC17.85 (antibody, V domains shown)
VH: EVQLVESGGDLVKPGGSLKLSCAASGFTFSNYGMSWVRQTPDKRLEWVATISTGGTYTYYPDSVKGRFTISRDNAKNTLYLQMSSLKSEDTAMYYCVGQSYSDYVSFAYWGQGTQVTVSA
VL: DIVMTQAAFSNPVTLGTSASISCRSSKSLLHSNGITYLYWYLQKPGQSPQLLIYQMSNLASGVPERFSSSGSGSDFTLRISRVEAEDVGVYYCAQNLEHPTFGGGTKLEIK
notes: murine mAb
Regarding B4, in assay [1], the binding result was “binds”.

B5: SC17.161 (antibody, V domains shown)
VH: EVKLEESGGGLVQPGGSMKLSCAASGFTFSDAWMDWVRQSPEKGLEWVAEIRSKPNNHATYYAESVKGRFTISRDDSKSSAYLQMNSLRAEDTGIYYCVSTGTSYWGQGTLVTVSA
VL: DIVMSQSPSSLAVSVGEKVTMNCESSQSLLYNSNQKNYLAWYQQKPGQSPKLLIYWASTRDSGVPDRFTGSGSGTDFTLTISSVRADDPAVYYCQQYFNYPLTFGAGTKLELK
notes: murine mAb
For the molecule B5, the binding result in assay [1] is listed as “binds”.
